# Measured values from IntAct's records for PubMed 21346797.
# B1: Response regulator aspartate phosphatase H (Bacillus subtilis), Q59HN8 (parent)
# chain: MSQAIPSSRVGVKINEWYKMIRQFSVPDAEILKAEVEQDIQQMEEDQDLLIYYSLMCFRHQLMLDYLEPGKTYGNRPTVTELLETIETPQKKLTGLLKYYSLFFRGMYEFDQKEYVEAIGYYREAEKELPFVSDDIEKAEFHFKVAEAYYHMKQTHVSMYHILQALDIYQNHPLYSIRTIQSLFVIAGNYDDFKHYDKALPHLEAALELAMDIQNDRFIAISLLNIANSYDRSGDDQMAVEHFQKAAKVSREKVPDLLPKVLFGLSWTLCKAGQTQKAFQFIEEGLDHITARSHKFYKELFLFLQAVYKETVDERKIHDLLSYFEKKNLHAYIEACARSAAAVFESSCHFEQAAAFYRKVLKAQEDILKGECLYAY
# partner: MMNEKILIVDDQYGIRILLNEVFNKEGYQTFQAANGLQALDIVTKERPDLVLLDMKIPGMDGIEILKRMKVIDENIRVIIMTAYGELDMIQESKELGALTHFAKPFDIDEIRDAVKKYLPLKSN
# Variants of: B1
# Conditions: with sp0f_bacsu spo0F
row,Variant,effect of a mutation on the interaction
1,F58A,decreasing interaction
2,Q47N,disrupting interaction

# Next, values leading:
row,effect of a mutation on the interaction,Variant
1,disrupting interaction,E137A
2,disrupting interaction,L50A
3,disrupting interaction,Y175A
4,decreasing interaction,D134A
